In article PMC5599369:

Target: gramicidin A (Bacillus brevis)
Experiment: single-channel electrophysiology

In the case of gramicidin A (peptide), the channel (dimer) lifetime is reported as under 3 ms.
